Assay [1] has as its system epithelial Na^+-channel, α-ENaC, β-ENaC, and γ-ENaC (rENaC). Nature of the assay: Dual-electrode voltage clip, amiloride-sensitive Na+-current in oocytes expressing ENaC. The assay is classed as cell-based, Xenopus laevis. The following applies: for activation of the Na^+-channel rENaC by hsgk2 and hsgk3: kinase inhibitor; for activation of the Na^+-channel rENaC by hsgk2 and hsgk3 / amiloride-inhibitable current, Iamil, through the Na^+-channel, rENaC: FIG. 1; for amiloride-inhibitable current, Iamil, through the Na^+-channel, rENaC: coexpression with kinase; for Na^+-current (INa): oocytes injected with α-ENaC, β-ENaC, and γ-ENaC plus kinase, mean ± SEM, n=7. On the procedure:
(§1) Each of the oocytes involved was injected with 1 ng cRNA from α-ENaC, β-ENaC, and γ-ENaC, Kv1.3, or minK, both with and without simultaneous injection of the kinases hsgk1, hsgk2, and hsgk3. Dual-electrode voltage-clip and current-clip experiments could be undertaken 2 to 4 days following injection. Na^+-currents (in the case of ENaC) and K^+-currents (in the case of Kv1.3 and minK) were filtered at 10 Hz and recorded using a recorder. The experiments were normally conducted on the second day following cRNA-injection. The bath solution contained 96 mM NaCl, 2 mM KCl, 1.8 mM CaCl2, 1 mM MgCl2, and 5 mM HEPES at a pH of 7.5 and a holding potential of −80 mV. In all experiments, bath pH was set by titration with HCl or NaOH. Bath-liquid flow rate was set to 20 ml/min, which provided for a complete change of solution within 10 to 15 seconds. All data were output in the form of arithmetic means±SEM.
(§2) In order to investigate the effects of hsgk1, hsgk2, or hsgk3, the mRNA of the respective kinases, together with the mRNA of the epithelial Na^+-channel, α-ENaC, β-ENaC, and γ-ENaC, or the voltage-dependent K^+-channel, Kv1.3, or the minK-channel, were injected into Xenopus oocytes and the amiloride-sensitive Na^+-current, INa, and voltage-activated K^+-current, IK, subsequently determined.

A further assay relates to hsgk2 and hsgk3. Nature of the assay: Kinase inhibitors on hsgk stimulation of channel activity in oocytes. The assay is classed as cell-based, Xenopus laevis. The following applies: protein-kinase inhibitor added; Table 1, FIGS. 1 and 2. On the procedure: as §1, §2
Assay [2] deals with human embryonic kidney cells (HEK-cells). Put plainly: Survival of HEK-cells after extraction of fetal calf serum. The assay is classed as cell-based. The following applies: FCS extracted, FIG. 3. On the procedure:
According to FIG. 3, extracting fetal calf serum (FCS) from human embryonic kidney cells (HEK-cells) (Lewis, et al (1984); Phillips, et al (1982)) reduces the total number of cells present due to cell mortality, as may be seen by comparing the black bars to the dotted bars, where FIG. 3 depicts the situations after 24 hours and 48 hours, respectively. This reduction is lessened by the insulin-like growth factor (IGF1), represented by the white bars. The effect of IGF1 is eliminated by the simultaneous inhibition of K^+-channels using margatoxin (MT), represented by the hatched bars. […] The activation of the Kv1.3-channel mediated by sgk2 and sgk3 thus has an antiapoptotic effect, and lack of an sgk2-effect and sgk3-effect would thus cause an increase in cell mortality, as occurs in the case of, for example, neurodegeneration. Conversely, activators of sgk2 and sgk3 may be employed for preventing apoptotic cell death in the case of neurodegeneration. Since Kv1.3 also plays a major role in regulating lymphocyte proliferation and lymphocyte function, inhibitors or activators of these kinases may be employed for affecting the immune system in the case of, e.g., autoimmune diseases or immune deficiency.

For assay [3], the system named is voltage-dependent K^+-channel, Kv1.3. Put plainly: Dual-electrode voltage clip, voltage-activated K+-current in oocytes expressing Kv1.3. The assay is classed as cell-based, Xenopus laevis. The following applies: oocytes injected with Kv1.3 plus kinase; mean ± SEM, n=7. On the procedure: as §1, §2
The next assay concerns minK-channel. Put plainly: Dual-electrode voltage clip, K+-current in oocytes expressing minK. The assay is classed as cell-based, Xenopus laevis. To be noted: oocytes injected with minK plus kinase; mean ± SEM, n=7. The protocol: as §1, §2

The record followed here is patent US20040038882A1, “Sgk2 and sgk3 used as diagnostic and therapeutic targets” (priority 2000, published 2004).

Take `COc1ccc2c(c[n+](C)c3c4cc5c(cc4ccc23)OCO5)c1OC` [chelerythrine, reference compound]: in assay [1], the “activation of the Na^+-channel rENaC by hsgk2 and hsgk3” value was “inhibit activation of the Na^+-channel”. In addition, the “stimulating effects of hsgk on ENaC-activity, Kv1.3-activity and minK-activity” value with hsgk2 and hsgk3 is recorded as “totally prevented”.

Turning to `CN[C@@H]1C[C@H]2O[C@@](C)([C@@H]1OC)n1c3ccccc3c3c4c(c5c6ccccc6n2c5c31)C(=O)NC4` [staurosporine, reference compound], the “activation of the Na^+-channel rENaC by hsgk2 and hsgk3” value in assay [1] is on record as “inhibit activation of the Na^+-channel”. In addition, the “stimulating effects of hsgk on ENaC-activity, Kv1.3-activity and minK-activity” value in the assay on hsgk2 and hsgk3 is recorded as “totally prevented”.

IGF1: insulin-like growth factor: the “reduction of total number of cells due to cell mortality” value in assay [2] (after 24 hours and 48 hours) is “lessened”.

Turning to “margatoxin (TIINVKCTSPKQCLPPCKAQFGQSAGAKCMNGKCKCYPH; UniProt P40755 1-39, looked up) [reference compound]”, the “effect of IGF1 on cell-number reduction” value in assay [2] (IGF1 plus simultaneous inhibition of K^+-channels, 24 and 48 hours) is “eliminated”.

B1: hsgk3: human serum-and-glucocorticoid-dependent kinase 3, coexpressed in oocytes by mRNA injection (protein, UniProt Q96BR1 1-496, looked up)
Serine/threonine-protein …: MQRDHTMDYKESCPSVSIPSSDEHREKKKRFTVYKVLVSVGRSEWFVFRRYAEFDKLYNTLKKQFPAMALKIPAKRIFGDNFDPDFIKQRRAGLNEFIQNLVRYPELYNHPDVRAFLQMDSPKHQSDPSEDEDERSSQKLHSTSQNINLGPSGNPHAKPTDFDFLKVIGKGSFGKVLLAKRKLDGKFYAVKVLQKKIVLNRKEQKHIMAERNVLLKNVKHPFLVGLHYSFQTTEKLYFVLDFVNGGELFFHLQRERSFPEHRARFYAAEIASALGYLHSIKIVYRDLKPENILLDSVGHVVLTDFGLCKEGIAISDTTTTFCGTPEYLAPEVIRKQPYDNTVDWWCLGAVLYEMLYGLPPFYCRDVAEMYDNILHKPLSLRPGVSLTAWSILEELLEKDRQNRLGAKEDFLEIQNHPFFESLSWADLVQKKIPPPFNPNVAGPDDIRNFDTAFTEETVPYSVCVSSDYSIVNASVLEADDAFVGFSYAPPSEDLFL
As to B1, in assay [1], the “amiloride-inhibitable current, Iamil, through the Na^+-channel, rENaC” value is recorded as “increased significantly” and the “Na^+-current (INa)” value is 4.5 ± 0.8 μA. The “K^+-current (IK), Kv1.3” value in assay [3] is listed as 8.2 ± 0.7 μA. Besides, in the assay with minK-channel, the “K^+-current (IK), MinK” value was 1.1 ± 0.11 μA.

B2: hsgk2: human serum-and-glucocorticoid-dependent kinase 2, coexpressed in oocytes by mRNA injection (protein, UniProt Q9HBY8 1-367, looked up)
Serine/threonine-protein …: MNSSPAGTPSPQPSRANGNINLGPSANPNAQPTDFDFLKVIGKGNYGKVLLAKRKSDGAFYAVKVLQKKSILKKKEQSHIMAERSVLLKNVRHPFLVGLRYSFQTPEKLYFVLDYVNGGELFFHLQRERRFLEPRARFYAAEVASAIGYLHSLNIIYRDLKPENILLDCQGHVVLTDFGLCKEGVEPEDTTSTFCGTPEYLAPEVLRKEPYDRAVDWWCLGAVLYEMLHGLPPFYSQDVSQMYENILHQPLQIPGGRTVAACDLLQSLLHKDQRQRLGSKADFLEIKNHVFFSPINWDDLYHKRLTPPFNPNVTGPADLKHFDPEFTQEAVSKSIGCTPDTVASSSGASSAFLGFSYAPEDDDILDC
In the case of B2, in assay [1], the “amiloride-inhibitable current, Iamil, through the Na^+-channel, rENaC” value is listed as “increased significantly” and the “Na^+-current (INa)” value is reported as 9.4 ± 1.7 μA. The “K^+-current (IK), Kv1.3” value in assay [3] was found to be 6.5 ± 0.6 μA. In addition, the “K^+-current (IK), MinK” value in the assay with minK-channel was 0.97 ± 0.1 μA.

B3: hsgk1: human serum-and-glucocorticoid-dependent kinase 1, coexpressed in oocytes by mRNA injection (protein, UniProt O00141 1-431, looked up)
Serine/threonine-protein …: MTVKTEAAKGTLTYSRMRGMVAILIAFMKQRRMGLNDFIQKIANNSYACKHPEVQSILKISQPQEPELMNANPSPPPSPSQQINLGPSSNPHAKPSDFHFLKVIGKGSFGKVLLARHKAEEVFYAVKVLQKKAILKKKEEKHIMSERNVLLKNVKHPFLVGLHFSFQTADKLYFVLDYINGGELFYHLQRERCFLEPRARFYAAEIASALGYLHSLNIVYRDLKPENILLDSQGHIVLTDFGLCKENIEHNSTTSTFCGTPEYLAPEVLHKQPYDRTVDWWCLGAVLYEMLYGLPPFYSRNTAEMYDNILNKPLQLKPNITNSARHLLEGLLQKDRTKRLGAKDDFMEIKSHVFFSLINWDDLINKKITPPFNPNVSGPNDLRHFDPEFTEEPVPNSIGKSPDSVLVTASVKEAAEAFLGFSYAPPTDSFL
With B3, in assay [1], the “Na^+-current (INa)” value is recorded as 5.9 ± 1.0 μA. For the same molecule, the “K^+-current (IK), Kv1.3” value in assay [3] stood at 8.4 ± 1.8 μA. In addition, the “K^+-current (IK), MinK” value in the assay with minK-channel is on record as 1.16 ± 0.11 μA.
